Reference: paper PMC5923501

Key:
Experiment in all cases: flow cytometry on cells; 5 × 10^6 CHO745 cells expressing the receptor or chimera incubated with 10 μg of Alexa fluorophore conjugated eE2 in 600 μL PBS at room temperature for 2 h, washed three times with PBS; read-out MFI of Alexa-647; one representative experiment of three
[1] = target: hCD81 LEL-ceTSP9 backbone chimera (Caenorhabditis elegans | human) (UniProt P60033)
[2] = target: scavenger receptor type B class I (SR-BI) (UniProt Q8WTV0)
UniProt Q8WTV0, sequence (Q8WTV0 whole entry): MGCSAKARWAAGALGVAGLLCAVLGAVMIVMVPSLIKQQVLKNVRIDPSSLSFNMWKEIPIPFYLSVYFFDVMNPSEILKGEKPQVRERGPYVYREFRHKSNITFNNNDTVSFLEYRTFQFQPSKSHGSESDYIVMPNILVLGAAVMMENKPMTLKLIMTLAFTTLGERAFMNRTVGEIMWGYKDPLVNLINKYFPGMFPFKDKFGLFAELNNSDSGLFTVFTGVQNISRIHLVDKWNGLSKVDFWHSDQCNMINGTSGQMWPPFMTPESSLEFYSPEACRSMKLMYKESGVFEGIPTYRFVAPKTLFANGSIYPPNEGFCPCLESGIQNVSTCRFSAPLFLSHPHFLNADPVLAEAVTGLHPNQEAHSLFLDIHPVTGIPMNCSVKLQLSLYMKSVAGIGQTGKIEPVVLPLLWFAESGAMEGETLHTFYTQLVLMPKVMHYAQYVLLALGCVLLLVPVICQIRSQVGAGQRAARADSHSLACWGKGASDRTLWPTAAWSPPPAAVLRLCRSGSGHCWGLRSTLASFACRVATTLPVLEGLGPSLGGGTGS

[3] = target: hCD81 LEL-hCD9 backbone chimera (human) (UniProt P60033)

Question: What does the source list for “HCV E2 ectodomain (eE2) from genotype 1a (strain H77) (from UniProt P27958 384-725) (domain or fragment)”?
Answer: MFI [1]: 20000; MFI [2]: 22000

Question: “HCV E2 ectodomain (eE2) from genotype 2a (strain J6) (from UniProt P26660 384-729) (domain or fragment)” was tested. Which MFI [1] did it give?
Answer: The MFI was 15000.

Question: And the MFI [2]?
Answer: The MFI was 65000.

Question: ΔHVR1 J6 eE2 (domain or fragment) was tested. Which fold change of binding against wildtype J6 eE2 [3] did it give?
Answer: The fold change of binding against wildtype J6 eE2 was 3 fold.
